# Measured values published in the nanobody polyreactivity screen of Harvey et al. (2022).
# Test: yeast display, Sf9 membrane polyspecificity reagent, FACS + sequencing; frameworks hold sequencing errors
# How it was run: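 After 36–48 hours of galactose induction, yeast (Saccharomyces cerevisiae BJ5465) displaying a synthetic nanobody library were stained at 4 °C for 1 hour with 10% biotinylated, detergent-solubilized Sf9 membrane reagent. Streptavidin microbeads enriched the stained cells before FACS sorting into low and high (top ~1%) gates on anti-HA and streptavidin fluorescence. Each clone's polyreactivity label reflects its gate of origin.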
row,Sequence,polyreactivity (PSR sort gate)
1,EEELVESGGGLVQAGGSLRLSCAASGIIFGYYAMGWYRQAPGKERELVAAITRSGSSTYYADSVKGRFTISRDNAKNTVYLQMNSLKPEDTAVVSCAADNFYQAYGYWGQGTQVTVSS,low polyreactivity
2,EEELVESGGGLVQAGGSLRLSCAASGSIFQYNAMGWYRQAPGKDRELVAVISWSGDTYYADSVKGRFTISRDNAKNTVYLQMNSLKPEDTAVYYCNAVQYTFTSEYGYWGQGTQVTVSS,low polyreactivity
3,EEELVESGGGLVQAGGSSLRLSCAASGFIFVSNAMGWYRQAPGKERELVASIRWSDGSTFDADSVKGRFTNSRDNAKNTVYLQMNSLKPEDTAVYYCNAVYEHRRVGWVTIDYGYWGQGTQVTVSA,low polyreactivity
4,EEQLVESGGGLVQPGGSLRLSCAASVYIYSRYRMGWYRQAPGKGREFVAAISGGSSPNYADCVKGRFTISRDNSKNTVYLQMNSLRAEDTAVYYCAAYKIDSDPRVYWGQGTQVTVSS,low polyreactivity
5,EVQLVESGGGLVHAGGSLRLICAASGFTFTGYTMGWYRQAPGKERELVATISGSGGNTYYADSVKGRFTISRDNAKNTVYLQINSVKPEDTAVYYCARLRSGPRVLYYYWGQGTQVTVSS,low polyreactivity
6,EVQLVESGGGLVQAGGSLRLSCAASGFTFGVYARGWYRQAPGKERELVAAITWGDGSTYYADSVKGRFTISRDNAKNTVYLQMNSLKPEDTAVYYCNAVTRRHKYYYWGQGTQVTVSS,high polyreactivity
7,EVQLVESGGGLVQAGGSLRLSCAASGFTFSYNAMGWYRQAPGKERELVAAIDWGGGSTYADSVKGRFTISRDNAKNTVYLQMNSLKPEDTAVYYCAAYIPSSGRNPEIGVEYDYWGQGTQVTVSS,low polyreactivity
8,EVQLVESGGGLVQAGGSLRLSCAAYGSTFSTYAMGWYRQAPGKERELVAAISFGGGSTYADSVKGRFTISRDNAKNTVYLQMNSLKPEDTAVYYCNTDLYLYGWYPRDVQQYAGGDYWGQGTQVTVSS,low polyreactivity
9,EVQLVESGGGLVQPGGSLRLSCAASGYIYRRYRMGWYRQAPGKGREFVAAISGGSSTNYADSVTGRFTISRDNSKNTVFLQMNSLRAEDTAVYYCAAYKIDSYPRVYWGQGTQVTVSS,low polyreactivity
10,FVQAGGSLRLSCAASGFIFGVYDMGWYRQAPGKERELVAAIDSVGSTYYADSVKGRFTISRDNAKNTVYLQMNSLNPEDTAVYYCAKDGSYQAYGYWGQGTQVTVSS,low polyreactivity
11,HDQHVESAGGLVQAGGSLRLSCAASGFILRWYAMGWYRQAPGKERELVAAISWSGGSTYYADSVKGRFTISRDNAKNTVYLQMNSEKPEVTAVYYCNAVNYRNKYDYWGQGTQVTVSS,high polyreactivity
12,HEQLQESGGGLVQAVGSLRLSCAASGHISRSSTMGWYRQAPGKERELVTAITRGTNTNYADSVKGRFTISRDNAKNSEYLQMNSLKPEDTAVYYCAAYGVLKPSRGDAVFHRYWGQGTQVTVSR,low polyreactivity
13,HEQLVESGGGLVQAGGSLRLICAASGRIFPRYAMGRYRQAPGKEMELVAAITKRDGSTYYADSVKGRFTISRDNAKNTVYLQMNSLKPEDSAVYYCATRRLYSKSWYYYWGQGTQVTVSS,high polyreactivity
14,HFQLVESGGRLVQAGGSIRLSCAASGRIFRPNAMGWYRQAPRKERQLVAAISYSGATTYYADSVKGRFTISRDNEKNTVYLQMNSLKPEDTAVYYCAACGTSAKEFGYWGQGTQVTVSS,low polyreactivity
15,HVELVEAGGGVVQAGGSLRLSCAASGRIFRYYVMGWYRPAPGKEREFVASISGRGASTYYADSVKGRFTISRDNAKNTVYIKRNSLKPEDTAVYYCNADVWLLSYVPEYDYWGQGTQVTVSS,low polyreactivity
16,HVHLVESGGGLVQAGGSLRLSCAASARTFWRYAMGRKRQAPGKERELVAAISVSGGTTYYADAVKGRFTISRDNAQNTVYLQMISLKPEATAVYYCAARYWHSYGYWGQGTQVTVSS,high polyreactivity
17,HVKLQESGDGLVQAGGSLRLSSAPSGTIYSDYGMGGSRQAPGKERELLAGISDGCNTNYTDSVKGRFTISRDNAHRVSADEQPETGGYRGVLLRGSERWLLFYVYWGQGTQVTVSS,high polyreactivity
18,HVPLVESGGGLVQAGGSLRLSCAASGSTFSVNVLGWYRLAAGKERELVAAITQAGGSTYYADSVKGRFSISRDTAKNTVYLQMNSLKPEDTAGYYCAVEKWSVYSFFLEGADYWGQGTQLTVSS,low polyreactivity
19,HVQIVESGGGLVQAGGRLRLSCAASGSTFHDYAMGWYRQATGQERELVAAISNSGGSTYYADSVKARFTISRDNAKNTVYLQMKSQKPEYTAVYYCAADGRWYWDYEYWGQGTQVTVSS,low polyreactivity
20,HVQLEDSGGGLVQAGGRLRITCAASGRSSETNDMGWYRQAPGKERELVAAISSSGGSTYYADSVKGRFTISRDNAKNTVYLQMNSLQPEDTAVYYCYAVYYRTVLKIGVYEYDYWGQGTQVTVSS,low polyreactivity
21,HVQLEETGRGLVQAGGSLRISCAASGRIFEYYAMGWYRQAPGKDRELVAAITSSTGSTSYADSVKGRFTISRDNEKNTVYLQMNSLKPEDTAVYYCAADVWFFSKLSRYDYWGQGTQVTVSS,low polyreactivity
22,HVQLGESGGGLVQAGGSLRLSCAASGFIFTAYVMGWYRQAPGKERELVAAISRSGGSTYYADSVKGRFTISRDNAKHTVYLQMNSLKPEDTAVYYCAKLRRDARYDYWGQGTQVTVSS,high polyreactivity
23,HVQLQEIGGGLVQAGDSQRLSCAASGNIFRFTDMGRYRQAPGKERELVAAINAGSTTYYAASVKGRFTISRDNAKNTVYLQMNSLKPEDTAVYYCNALYSYKYGRKYDYWGQGTQVTVSS,high polyreactivity
24,HVQLQESAGGLVQAGGSLRLSCAASGTISSREAMGWYSQAPGKERDFVATIASGTTTYYADSVKGSFTISRDNAENTVYLQTNTLKPEDTAVYYCAAPTIQIYPFYYWGHGTQVTVSS,high polyreactivity
25,HVQLQESGGGLLQAGGSLRLSCAASGSIFQATYMGWYRQATGKEREFVASITYGSITNYADSVKGRFTIGRDNAKDTLYLQMNSLKPEFTAVYYCAVARHYIPAFHYWGQGTQVTVSS,low polyreactivity
26,HVQLQESGGGLVQAGGSLRLSCAASGSIFQATYMGWYRPAPGKEREFVASITYGSITNYADSVKGRFTIGRDNAKDTLYLQMNSLKPEDTAVYYCAAVGRRRTTVGRYVRMDYWGQGTQVTVSS,low polyreactivity
27,HVQLVESGGGLVQAAGSLRLSCAASGRIFSAYAMGWYRQAPGKEREFVAAITQSGGSTYYAESVKGRFTISRDNAKNTVYLQMNSLKPEDTAVYYCAAGDAYYTEALPFGEYDYWGQGTQVTVSS,low polyreactivity
28,HVQLVESGGGLVQAGGRLRLSCAASASIFDSNAMGWYRQAPGKERELVADIRGIGGSTYYADSVKGRFTISRDNAKNTVYLQMNSLKPEDTAVYYCNTSTLGGYYWGQGTQVTVSS,low polyreactivity
29,HVQLVESGGGLVQAGGSLRISCAASGITFYAYAMGWYRQAPGKERELVAAITRRGGSTRYADSVKGRFTITRDNAKNTVYLQMNSLKPEDTAVYYCNARSGRYFLGYGYWGQGTQVTVSS,high polyreactivity
30,HVQLVESGGGLVQAGGSLRLSCAASGFIFRYYAMGWYRQAPGKERELVAAISWSGTPTFYADSVKGRFTISRDNAKNTVYLQMNSLKPEDTAVYYCAAETTGYDSYIQYEYWGQGTQVTVSS,high polyreactivity
